Assay: yeast display, Sf9 membrane polyspecificity reagent, FACS + sequencing; frameworks hold sequencing errors
How it was run: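 Nanobodies from a synthetic yeast display library (Saccharomyces cerevisiae BJ5465), induced 36–48 hours with galactose, were stained 1 hour at 4 °C with 10% biotinylated, detergent-solubilized Sf9 membrane reagent, enriched on streptavidin microbeads, then FACS-sorted. Anti-HA (expression) and streptavidin (reagent binding) fluorescence set low and high (top ~1%) gates. Polyreactivity labels come from the gate of origin. Genes were colony-PCR amplified, MiSeq 2 × 250 sequenced and filtered by CDR length.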

Sequence	polyreactivity (PSR sort gate)
QVQLVESGGGLVQAGGSLRLSCAASGIIFRGYAMGWYRLAPGKERELVAAINQDSGNTYYADSVKGRFTISRDNAKKTVYLQMNSLKPEDTAVYYCAASSRLNRWNYYAFDYWGQGTQVTVSS	high polyreactivity
QVQLVESGGGLVQAGGSLRLSCAASGIIFRGYVMGWYRQAPGKERELVAAISTSGGRTSYADSVKGRFTISRDNAKNTVYLQMNSLKPEDTAVYYCAADSGYRYYTKSVGYDYWGQGTQVTVSS	high polyreactivity
QVQLVESGGGLVQAGGSLRLSCAASGIIFRGYVMGWYRQAPGKERELVADISRGGSTYYADSVKGRFTISRDNAKNTVYLQMNSLKPEDTAVYYCATAGPLWFYWGYDYWGQGTQVTVSS	low polyreactivity
QVQLVESGGGLVQAGGSLRLSCAASGIIFRLYGMGWYRPAPGKAREFVATITWRGGRTNYADSVKGRFTISRDNAKNTVYLLMNSRKPEDTADYYCAKDVRYARSNEYDSWGQGTQVTVSS	low polyreactivity
QVQLVESGGGLVQAGGSLRLSCAASGIIFRNYAMGWYRQAPGKERELVATIRYRGGRTYADSVKGRFTISRDNAKNTVYLQMNSLKPEDTAVYYCNARRLSVYGDYDYWGQGTQVTVSS	high polyreactivity
QVQLVESGGGLVQAGGSLRLSCAASGIIFRPYAMGWYRQAPGKERELVAAITGSGVSTYYADSVKGRFTISRDNAKNTVYLQMNCQKPEDTAVYYCAKRYNRGYHRYDYWGQGTQVTVSS	low polyreactivity
QVQLVESGGGLVQAGGSLRLSCAASGIIFRPYAMGWYRQAPGKERELVASITLSGGSTYYADSVKGRFTISRDNAKNTVYLQMNSLKPEDTAVYYCNRYPRLRVVPSRYVKYDYWGQGTQVTVSS	low polyreactivity
QVQLVESGGGLVQAGGSLRLSCAASGIIFRRYAMGWYRQAPGKERELVAAITGRGGSTYYADSVKGRFTISRDNAKNTVYLQMNSLKPEDTAVYYCAADVYTGDYDSWGQGTQVTVSS	high polyreactivity
QVQLVESGGGLVQAGGSLRLSCAASGIIFRSYAMGWYRQAPGKERELVAAITSGGSTNYADSVKGRFTISRDNAKNTVYLQMHSLKPEDTAVYYCAARWPWYGKLRYYYWGQGTQVTVSS	high polyreactivity
QVQLVESGGGLVQAGGSLRLSCAASGIIFRYNALGWYRQAPGKERELVSPISVSGGSTYYADSVKGRFTISRDNAKNTVYLQMNSLQPEDTAVYYCAALLYRYGVHQAEHDYWGQGTQVTVSS	high polyreactivity
QVQLVESGGGLVQAGGSLRLSCAASGIIFRYYAMGWYRQAPGKERELVAAITVNGGRTYYADSVKGRFTISRDNAKNTVYLQMNSLKPEDTAVYYCAAYPHRYRVTPYPSVVSLDNYWGQGTQVTVSS	low polyreactivity
QVQLVESGGGLVQAGGSLRLSCAASGIIFRYYAMGWYRQAPGKEREWVAAISSSGVSTYYADSVKGRFTISRDNAKNNVYLQMNSLKPEDTAVYYCAAVTTWRMDYWGQGTQVTVSS	high polyreactivity
QVQLVESGGGLVQAGGSLRLSCAASGIIFSDYAMGWYRQAPGKERELVAAISSNAGTTSYADSVKGRFTISRDNAKNTVYLQMNSLKPEDTAVYYCNADSSYPPGYDYCGQGTQVTVSS	low polyreactivity
QVQLVESGGGLVQAGGSLRLSCAASGIIFSDYDMGWYRQAPGKERELVAAISWSGGSTYYADSVKGRFTISRDNAKNTVYLQMNSLKPEDTAVYYCAVDSQRQVTSRDDYWGQGTQVTVSS	low polyreactivity
QVQLVESGGGLVQAGGSLRLSCAASGIIFSGNAMGWSRQAPGKERELVAAITLSGGSTYYADSVKGRFTISRDNAKNTVYLQMNSLKPEDTAVYYCNAVYDTKYSLRDIDTEYGSWGQGTQVTVSS	low polyreactivity
QVQLVESGGGLVQAGGSLRLSCAASGIIFSGNAMGWYRQAPGKERELVAAITLSGGSTYYADSVKGRFTISRDNAKNTVYLQMNSLKPEDTAVYYCNAVYDTNYSLRDIDTEYGSWGQGTQVTVSS	low polyreactivity
QVQLVESGGGLVQAGGSLRLSCAASGIIFSGYVMGWYRQAPGKERELVAAISSGGSTYYADSVKGRFTISRDNAKNTVYLQMNSLKPEDTAVYYCAAAGYWTLGYGYWGQGTQVTVSS	low polyreactivity
QVQLVESGGGLVQAGGSLRLSCAASGIIFSTYAMGWYRQAPGKDRELVAAITSTGSTNYADSEKGRFTISRDNAKTTVSLQMNSLKPEDTAVYFCAARYAGPSPTDTGHDYWGQGTQVTVSS	low polyreactivity
QVQLVESGGGLVQAGGSLRLSCAASGIIFSTYAMGWYRQAPGKERELDATITSSGSNTYYADSVKGRFTISRDNAKNTVYLQMNSLKPEDTAVYYCNAVASHYDFGYWGQGTQVTVSS	high polyreactivity
QVQLVESGGGLVQAGGSLRLSCAASGIIFSYNFMGWYRQAPGKERELVAGISRSGGSTYYADSVKGRFTISRDNAKNTVYLQMNSLKPEDTAVYYCNTVERGQNRRPGDKARRYDWGQGTQVTVSS	high polyreactivity
QVQLVESGGGLVQAGGSLRLSCAASGIIFSYYAMGWYRQAPGKERELVAAITSGGGSTYYADSVKGRFTISRDNAKNTVYLQMNSLKPEDTAVYYCAADYNRELGRKFEYWGQGSQVTVSS	high polyreactivity
QVQLVESGGGLVQAGGSLRLSCAASGIIFTFNAMGWYRQAPGKERELVASISITGDTYYADSVKGRFTISRDNAKNTVYLQMNSLKPEDTAVYYCAAEYYFYSRHWYISYDYWGQGTQVTVSS	low polyreactivity

Sequence	polyreactivity (PSR sort gate)
QVQLVESGGGLVQAGGSLRLSCAASGIIFTFYTMGWYRQAPGKERELVAAITWSGGSTNYADSVKGRFTISRDNAKNTVYLQMNSLKPEDTAVYYCAAQGYPQSPPWEDYWGQGTQVTVSS	low polyreactivity
QVQLVESGGGLVQAGGSLRLSCAASGIIFTGNAMGWYRQAPGKERELVAAITSGDTTNYADSVKGRFTISRDNAKNTVYLQKNSLKPEDTAVYYCAKELQVRQAGDYWGQGTQVTVSS	low polyreactivity
QVQLVESGGGLVQAGGSLRLSCAASGIIFTGYAMGWYRQAPGKERELVAAISRSGGGTYYADSVKGRFTISRDNAKNTVYLQMNSLKPEDTAVDYCNRLRIAASYWQAYDYWGQGTQLTVSS	high polyreactivity
QVQLVESGGGLVQAGGSLRLSCAASGIIFTKYVMGWYRQAPGKERELVAAINTDGGSTRYADSVKGRFTISRDNAKNTVYLQMNSLKPEDTAVYYCAAVSSRRPGYEYYYWGQGTQVTVSS	high polyreactivity
QVQLVESGGGLVQAGGSLRLSCAASGIIFTVYAMGWYRQPPGTERELVAAITSSGGRTYYADSVKGRFTISRDNAKNTVYLQMNSLKPDDTAVYYCAARRPGYVRKDDYWGQGTQVTVSS	high polyreactivity
QVQLVESGGGLVQAGGSLRLSCAASGIIFTYAMGWYRQAPGKERELVAAIDWRGGRTYYADSVKGRFTISRDNAKNTVYLQMNSLKPEDTAVYYCAVGVLYAGYFYRYRYYYWGQGTQVTVSS	high polyreactivity
QVQLVESGGGLVQAGGSLRLSCAASGIIFTYSAMGWYRQAPGKERELVAAISRRGGTTYYADSVKGRFTISRDNAKNTVYLQMNSLKPEDTAVYYCAKKWGWFPVYYWGQGTQVTVSS	high polyreactivity
QVQLVESGGGLVQAGGSLRLSCAASGIIFTYYAMGWYRQAPGKERELVAAISVSGSSTYYADSVKGRFTISRDNAKNTVYLQMNSLKPEDTAVYYCAARYQWGTRGFGYWGQGTLVTVSS	high polyreactivity
QVQLVESGGGLVQAGGSLRLSCAASGIIFTYYAMGWYRQAPGKERELVARISSSGGRTYYADSVKGRFTISRDNAKNTVYLQMNSLKPEDTAVYYCNAVTTKSFHRYDYWGQGTQVTVSS	high polyreactivity
QVQLVESGGGLVQAGGSLRLSCAASGIIFVDYVMGWYRQAPGKERELVAAITYTGGSTYYADSVKGRFTISRDNAKNTVYLQMNSLKPEDTAVYYCAARRKHRFFPAYYYWGQGTQVTVSS	high polyreactivity
QVQLVESGGGLVQAGGSLRLSCAASGIIFVENAMGWYRQAPGKERELVASGDSTYYADSVKGRFTISRDNAKNTVYLQMNSLKPEDTAVYYCAVDHYSARLLARYDYWGQGTQVTVSS	low polyreactivity
QVQLVESGGGLVQAGGSLRLSCAASGIIFVKYAMGWYRQAPGKERELVAAINWRTGRTYYADSVKGRFTISRDNAKNTVYLQMNSLKPEDTAVYYCAADVGIVIRLGRTEESGYYWGQGTQVTVSS	low polyreactivity
QVQLVESGGGLVQAGGSLRLSCAASGIIFVKYVMGWYRQAPGKERELVAAISLGGGSTYYADSVKGRFTISRDNAKNTVYLQMNSLKPEDTAVYYCAAVRWTSRSRYDYWGQGTQVTVSS	high polyreactivity
QVQLVESGGGLVQAGGSLRLSCAASGIIFVKYVMGWYRQAPGKERELVAAITGTGRTNYADSVKGRFTISRDNAKNTVYLQMNSLKPEDTAVYYCNARQAGTRYKYGYYGRYYWGQGTQVSVSS	high polyreactivity
QVQLVESGGGLVQAGGSLRLSCAASGIIFVRYVMGWYRQAPGKERELVAAINWSGGSTYYAYSVKGRFTISRDNANNTVYLQMNSLKPEDTAVYYCAAGSARDDDYWGQGTQVPVSS	high polyreactivity
QVQLVESGGGLVQAGGSLRLSCAASGIIFVSYDMGWYRQAPGKERELVAAINRGGRTYYADSVKGRFTISRDNAKNTVYLQMNSLKPEDTAVYYCAAQFHFRPFSWTYDYWGQGTQVTVSS	high polyreactivity
QVQLVESGGGLVQAGGSLRLSCAASGIIFVTYAMGWNRQAPGKEREFVAGINWNGGSTYYADSVKGRFTISRDNAKNTVYLQMNSLKPEDTAVYYCNAENYRVRQRSSVKYDYWGQVTQVTVSS	low polyreactivity
QVQLVESGGGLVQAGGSLRLSCAASGIIFVYNAMGWYRQAPGKERELVAVISFIGDSTYYADSVKGRFTISRDNAKNTVYLQMNSLKPEDTAVYYCAADYYLPYWFFVGYDYWGQGTQVTVSS	low polyreactivity
QVQLVESGGGLVQAGGSLRLSCAASGIIFWAYALGWYRQAPGKERELVAVISRGGSTNYADSVKGRFTISRDNAKNTVYLQMNSLKPEDTAVYYCAARYGWGQGTQVTVSS	high polyreactivity
QVQLVESGGGLVQAGGSLRLSCAASGIIFWAYAMGWYRQAPGKERELVAVISRGGSTNYADSVKGRFTISRDNAKNTVYLQMNSLKPEDTAVYYCAARYGWGQGTQVTVSS	high polyreactivity
QVQLVESGGGLVQAGGSLRLSCAASGIIFWDNAMGWYRQAPGQDRELVASINYSGGSTYYADSVKGRFTISRDNAKNTVYLQMNSLKPEDTAVYDCAARTVTLDDWDYAYDYWGQGTQVTVSS	low polyreactivity

Source: the nanobody polyreactivity screen of Harvey et al. (2022)
